Assay results taken from US10806798B2, “Compound with effects of thrombolysis, free radical scavenging and thrombus-targeting” (Shanghai Lumosa Therapeutics Co., Ltd., priority 2012, dated 2020).
Bridge positions count the residues as written; N and C are the ends. Peptide text beside a SMILES is read from it. I, II: the chains in the order shown. * marks the point of attachment. X1 = CC1(C)N([O])C(c2ccc(OCC(=O)*)cc2)=[N+]([O-])C1(C)C

What was measured:
rats with stroke [1] = assay: Treatment 6 h after the onset of stroke, Ie 5 μmol/kg initially then 2 μmol/kg (Zealonga scores); format: in vivo, SD rats; conditions: Ie 5 μmol/kg on day 1 (6 h after onset), 2 μmol/kg per day for 5 days
Protocol: (§1) The efficacy was represented by neural function scores, and a lower score indicates higher efficacy. A 10% chloral hydrate solution was injected intraperitoneally into male SD rats at a dosage of 400 mg/kg body weight for anesthesia. A longitudinal open incision was made at the center of the neck, and the right common carotid artery trunk was dissected (about 3 cm in length). Carotid external artery branches were each dissected and ligated at the hyoid level, and the carotid internal artery was dissected at the swollen part of the neck. The open incision in the carotid internal artery and the proximal end of the common carotid artery were occluded respectively with noninvasive arterial clips, and the distal end of the carotid external artery was ligated. A catheter containing 0.5 mL thrombus suspension in normal saline was inserted in the carotid external artery trunk. At the same time when the clip on the carotid internal artery was released, the 0.5 mL thrombus suspension in normal saline in the catheter slowly flew from the carotid external artery to its proximal end, and then was injected into the arteries in brain through the carotid internal artery. […] The rats were compared to themselves each day, and evaluated for the degree of damage in neural function by the Zealonga method. […]

rats with stroke [2] = assay: Treatment 24 h after the onset of stroke, Ie 5 μmol/kg initially then 2 μmol/kg (Zealonga scores); format: in vivo, SD rats; conditions: Ie 5 μmol/kg on day 1 (24 h after onset), 2 μmol/kg per day for 5 days
Protocol: as §1, with “score indicates a higher efficacy.” for “score indicates higher efficacy.”, “The open incisions in the” for “The open incision in the”

rats with stroke [3] = assay: Treatment 6 h after the onset of stroke induced by aged thrombus, Ie 2 μmol/kg (Zealonga scores); format: in vivo, SD rats; conditions: 2 μmol/kg Ie per day for 6 days from 6 h after onset
Protocol: as §1, with “score indicates a higher efficacy.” for “score indicates higher efficacy.”, “The open incisions in the” for “The open incision in the”

[4] = FT-MS monitoring of metabolic products in brain tissues of rats treated with Ie; format: in vivo
Protocol: The entire rat brain was taken out and placed into a 50 mL centrifuge tube, into which 10 mL 0.9% NaCl was added, and homogenized to obtain a uniform suspension which was then centrifuged at 3000 rpm for 10 min. 5 mL supernatant was added into 10 mL methanol and evenly mixed by shaking, and centrifuged at 3000 rpm for 10 min. The supernatant was concentrated under reduced pressure until dry, followed by addition of 1 mL methanol, and again centrifuged at 12000 rpm for 10 min. The resultant supernatant was used for monitoring of the content of metabolic products in brain tissues in rats treated with compound Ie.
(MS conditions: loading: 10 μL; ionization mode: ES+; cone voltage: 30 V; mobile phase flow rate: 0.2 mL/min). According to the above data, the metabolic products M1 and M2 were assumed as the following compounds: […]

SMILES: CC(C)[C@H](NC(=O)[C@H](CC(=O)O)NC(=O)CNC(=O)[C@H](CCCNC(=N)N)NC(=O)[C@H](CCCCNC(=O)[C@H](CCCCN)NC(=O)[C@H](C)NC(=O)[C@@H]1CCCN1C(=O)[C@H](CCCNC(=N)N)NC(=O)CN)NC(=O)COc1ccc(C2=[N+]([O-])C(C)(C)C(C)(C)N2[O])cc1)C(=O)O [Ie, 1,3-dioxo-2-{4′-oxyacetyl-[N^ω-(Gly-Arg-Pro-Ala-Lys)-Lys-Arg-Gly-Asp-Val]phenyl}-4,4,5,5-tetramethylimidazoline] (I: H-GRPAK / II: X1-KRGDV-OH; amide I:C-II:1)
- rats dead among the 12 rats that received the treatment (rats with stroke [1]): two were dead
- rats dead among the 12 rats that received the treatment (rats with stroke [2]): three were dead
- rats dead among the 12 rats that received the treatment (rats with stroke [3]): six were dead
- crossing of the blood-brain barrier ([4]; concluded from metabolic products found in rat brain): did indeed cross the blood-brain barrier
- metabolic products in brain tissues ([4]; rats treated with compound Ie, high-resolution FT-MS): two metabolic products M1 and M2 in the brain
